Reference: patent US9708383 (Novo Nordisk, dated 2017)
*1 amine or outer side, *2 acyl side, *3 side chain or, on linkers, in order; H or OH if unused. Where no end group is shown, it is not given here. Side-chain parts run from the residue outwards. [ ]: non-standard residue; d: D form. The star is where a group is joined. Decanoyl(10-(4-HOOC-PhO)) = O=C(O)c1ccc(OCCCCCCCCCC(=O)*)cc1; γGlu = O=C(O)[C@H](CCC(=O)[*:2])N[*:1]; C12 diacid = O=C(O)CCCCCCCCCCC(=O)*; 13‑carboxytridecanoyl = C14 diacid; AEEA = NCCOCCOCC(=O)O; Aib = CC(C)(N)C(=O)O

B1: GLP-1 derivative of Example 9: [Aib8,Lys18,Glu22,Arg26,Lys27,His31,Arg34]-GLP-1-(7-35)-peptide (peptide)
peptide: H[Aib]EGTFTSDVSK([AEEA-AEEA-γGlu-13‑carboxytridecanoyl])YLEEQAARK([AEEA-AEEA-γGlu-13‑carboxytridecanoyl])FIAHLVRG
modifications: ends and bridges not checked
B2: GLP-1 derivative of Example 78: [Lys18,Glu22,Arg26,Lys31,Arg34]-GLP-1-(7-37)-peptide (peptide)
peptide: HAEGTFTSDVSK([AEEA-AEEA-γGlu-13‑carboxytridecanoyl])YLEEQAAREFIAK([AEEA-AEEA-γGlu-13‑carboxytridecanoyl])LVRGRG
B3: GLP-1 derivative of Example 34: [Lys18,Gln34]-GLP-1-(7-37)-peptide (peptide)
peptide: HAEGTFTSDVSK([AEEA-AEEA-γGlu-Decanoyl(10-(4-HOOC-PhO))])YLEGQAAK([AEEA-AEEA-γGlu-Decanoyl(10-(4-HOOC-PhO))])EFIAWLVQGRG
B4: GLP-1 derivative of Example 38: [Lys18,Glu22,Gln34]-GLP-1-(7-37)-peptide (peptide)
peptide: HAEGTFTSDVSK([AEEA-AEEA-γGlu-Decanoyl(10-(4-HOOC-PhO))])YLEEQAAK([AEEA-AEEA-γGlu-Decanoyl(10-(4-HOOC-PhO))])EFIAWLVQGRG
B5: GLP-1 derivative of Example 56: [Lys18,Glu22,Val25,Arg26,Lys31,Gln34]-GLP-1-(7-37)-peptide (peptide)
peptide: HAEGTFTSDVSK([γGlu-AEEA-AEEA-13‑carboxytridecanoyl])YLEEQAVREFIAK([γGlu-AEEA-AEEA-13‑carboxytridecanoyl])LVQGRG
B6: GLP-1 derivative of Example 67: [Lys18,His26,Lys27,Gln34]-GLP-1-(7-37)-peptide (peptide)
peptide: HAEGTFTSDVSK([AEEA-AEEA-γGlu-Decanoyl(10-(4-HOOC-PhO))])YLEGQAAHK([AEEA-AEEA-γGlu-Decanoyl(10-(4-HOOC-PhO))])FIAWLVQGRG
B7: GLP-1 derivative of Example 35: [Lys18,Glu22,His26,Lys27,Gln34]-GLP-1-(7-37)-peptide (peptide)
peptide: HAEGTFTSDVSK([AEEA-AEEA-γGlu-Decanoyl(10-(4-HOOC-PhO))])YLEEQAAHK([AEEA-AEEA-γGlu-Decanoyl(10-(4-HOOC-PhO))])FIAWLVQGRG
B8: GLP-1 derivative of Example 58: [Lys18,Glu22,Glu23,Val25,Arg26,Lys27,Gln34]-GLP-1-(7-37)-peptide (peptide)
peptide: HAEGTFTSDVSK([AEEA-AEEA-γGlu-13‑carboxytridecanoyl])YLEEEAVRK([AEEA-AEEA-γGlu-13‑carboxytridecanoyl])FIAWLVQGRG
B9: GLP-1 derivative of Example 72: [Lys18,His26,Lys31,Arg34]-GLP-1-(7-37)-peptide (peptide)
peptide: HAEGTFTSDVSK([AEEA-AEEA-γGlu-13‑carboxytridecanoyl])YLEGQAAHEFIAK([AEEA-AEEA-γGlu-13‑carboxytridecanoyl])LVRGRG
notes: position 26 of the entry may not be His
B10: GLP-1 derivative of Example 43: [Lys18,Glu22,Val25,Arg26,Lys31,Arg34]-GLP-1-(7-37)-peptide (peptide)
peptide: HAEGTFTSDVSK([AEEA-AEEA-γGlu-13‑carboxytridecanoyl])YLEEQAVREFIAK([AEEA-AEEA-γGlu-13‑carboxytridecanoyl])LVRGRG
B11: GLP-1 derivative of Example 60: [Lys18,Glu22,His26,Lys27,Arg34]-GLP-1-(7-37)-peptide (peptide)
peptide: HAEGTFTSDVSK([AEEA-AEEA-γGlu-13‑carboxytridecanoyl])YLEEQAAHK([AEEA-AEEA-γGlu-13‑carboxytridecanoyl])FIAWLVRGRG
B12: GLP-1 derivative of Example 44: [Lys18,Glu22,Val25,Arg26,Lys31,Gln34]-GLP-1-(7-37)-peptide (peptide)
peptide: HAEGTFTSDVSK([AEEA-AEEA-γGlu-13‑carboxytridecanoyl])YLEEQAVREFIAK([AEEA-AEEA-γGlu-13‑carboxytridecanoyl])LVQGRG
B13: GLP-1 derivative of Example 47: [Lys18,Glu22,Val25,Arg26,Lys27,His31,Arg34]-GLP-1-(7-37)-peptide (peptide)
peptide: HAEGTFTSDVSK([AEEA-AEEA-γGlu-13‑carboxytridecanoyl])YLEEQAVRKFIAHLVRGRG
notes: Printed name omits the second acylation; printed masses fit a double-acylated compound
B14: GLP-1 derivative of Example 62: [Lys18,Glu22,His26,Lys27,His31,Arg34]-GLP-1-(7-37)-peptide (peptide)
peptide: HAEGTFTSDVSK([AEEA-AEEA-γGlu-13‑carboxytridecanoyl])YLEEQAAHK([AEEA-AEEA-γGlu-13‑carboxytridecanoyl])FIAHLVRGRG
B15: GLP-1 derivative of Example 55: [Lys18,Glu22,Val25,Arg26,Lys31,Arg34]-GLP-1-(7-37)-peptide (peptide)
peptide: HAEGTFTSDVSK([γGlu-AEEA-AEEA-13‑carboxytridecanoyl])YLEEQAVREFIAK([γGlu-AEEA-AEEA-13‑carboxytridecanoyl])LVRGRG
B16: GLP-1 derivative of Example 70: [Lys18,Arg26,Lys31,Arg34]-GLP-1-(7-37)-peptide (peptide)
peptide: HAEGTFTSDVSK([AEEA-AEEA-γGlu-13‑carboxytridecanoyl])YLEGQAAREFIAK([AEEA-AEEA-γGlu-13‑carboxytridecanoyl])LVRGRG
B17: GLP-1 derivative of Example 42: [Lys18,Glu22,Val25,Arg26,Lys27,Gln34]-GLP-1-(7-37)-peptide (peptide)
peptide: HAEGTFTSDVSK([AEEA-AEEA-γGlu-Decanoyl(10-(4-HOOC-PhO))])YLEEQAVRK([AEEA-AEEA-γGlu-Decanoyl(10-(4-HOOC-PhO))])FIAWLVQGRG
B18: GLP-1 derivative of Example 61: [Lys18,Glu22,His26,Lys27,Gln34]-GLP-1-(7-37)-peptide (peptide)
peptide: HAEGTFTSDVSK([AEEA-AEEA-γGlu-13‑carboxytridecanoyl])YLEEQAAHK([AEEA-AEEA-γGlu-13‑carboxytridecanoyl])FIAWLVQGRG
B19: GLP-1 derivative of Example 46: [Lys18,Glu22,Val25,Arg26,Lys27,Arg34]-GLP-1-(7-37)-peptide (peptide)
peptide: HAEGTFTSDVSK([AEEA-AEEA-γGlu-13‑carboxytridecanoyl])YLEEQAVRK([AEEA-AEEA-γGlu-13‑carboxytridecanoyl])FIAWLVRGRG
B20: GLP-1 derivative of Example 57: [Lys18,Glu22,Glu23,Val25,Arg26,Lys27,Arg34]-GLP-1-(7-37)-peptide (peptide)
peptide: HAEGTFTSDVSK([AEEA-AEEA-γGlu-13‑carboxytridecanoyl])YLEEEAVRK([AEEA-AEEA-γGlu-13‑carboxytridecanoyl])FIAWLVRGRG
B21: GLP-1 derivative of Example 48: [Lys18,Glu22,Val25,Arg26,Lys27,Gln34]-GLP-1-(7-37)-peptide (peptide)
peptide: HAEGTFTSDVSK([AEEA-AEEA-γGlu-13‑carboxytridecanoyl])YLEEQAVRK([AEEA-AEEA-γGlu-13‑carboxytridecanoyl])FIAWLVQGRG
B22: GLP-1 derivative of Example 40: [Lys18,Glu22,Gln34]-GLP-1-(7-37)-peptide (peptide)
peptide: HAEGTFTSDVSK([AEEA-AEEA-γGlu-C12 diacid])YLEEQAAK([AEEA-AEEA-γGlu-C12 diacid])EFIAWLVQGRG
B23: GLP-1 derivative of Example 54: [Lys18,Glu22,Gln34]-GLP-1-(7-37)-peptide (peptide)
peptide: HAEGTFTSDVSK([AEEA-AEEA-γGlu-13‑carboxytridecanoyl])YLEEQAAK([AEEA-AEEA-γGlu-13‑carboxytridecanoyl])EFIAWLVQGRG

biological target: T1, human GLP-1 receptor (human, UniProt P43220 24-463); test: SPA, displacement of 125I-GLP-1(7-36)NH2, 0.005% HSA
T1 construct: whole, on cells; Used as purified membranes of the transfected hamster cells, not whole cells; also called hGLP-1
Description: (§1) A shift in the binding affinity, $IC50$, is an indication that the derivative in question binds to albumin, and thereby a prediction of a potential protracted pharmacokinetic profile of the derivative in question in animal models.
(§2) 25 ul (microliter) of test compounds are added to Optiplate. HSA ("high albumin" experiment containing 2% HSA), or buffer ("low albumin" experiment containing 0.005% HSA), was added (50 ul). 5-10 µg protein/sample was added (50 ul) corresponding to 0.1-0.2 mg protein/ml (to be preferably optimised for each membrane preparation). SPA-particles (Wheatgerm agglutinin SPA beads, Perkin Elmer, #RPNQ0001) were added in an amount of 0.5 mg/well (50 ul). […] The plates were sealed with PlateSealer and incubated for 120 minutes at 30° C. while shaking. The plates were centrifuged (1500 rpm, 10 min) and counted in Topcounter.

| Binder | IC50 [nM] |
| --- | --- |
| B1 | < 1000 |
| B2 | < 1000 |
| B3 | < 1000 |
| B4 | < 1000 |
| B5 | < 1000 |
| B6 | < 1000 |
| B7 | < 1000 |
| B8 | < 1000 |
| B9 | < 1000 |
| B10 | < 1000 |
| B11 | < 1000 |
| B12 | < 1000 |
| B13 | < 1000 |
| B14 | < 1000 |
| B15 | < 1000 |
| B16 | < 1000 |
| B17 | < 1000 |
| B18 | < 1000 |
| B19 | < 1000 |
| B20 | < 1000 |
| B21 | < 1000 |
| B22 | < 1000 |
| B23 | < 1000 |

biological target: T1, human GLP-1 receptor; test: SPA, 2.0% vs 0.005% HSA
Description: as §1, §2

| Binder | ratio IC50 high HSA/IC50 low HSA |
| --- | --- |
| B1 | > 1 |
| B2 | > 1 |
| B3 | > 1 |
| B4 | > 1 |
| B5 | > 1 |
| B6 | > 1 |
| B7 | > 1 |
| B8 | > 1 |
| B9 | > 1 |
| B10 | > 1 |
| B11 | > 1 |
| B12 | > 1 |
| B13 | > 1 |
| B14 | > 1 |
| B15 | > 1 |
| B16 | > 1 |
| B17 | > 1 |
| B18 | > 1 |
| B19 | > 1 |
| B20 | > 1 |
| B21 | > 1 |
| B22 | > 1 |
| B23 | > 1 |
